In paper PMC6997370, “Significant improvement in catalytic activity and enantioselectivity of a Phaseolus vulgaris epoxide hydrolase, PvEH3, towards ortho-cresyl glycidyl ether based on the semi-rational design” (Scientific Reports, 2020):
Residue numbers refer to the chain shown, from its start. Numbers in names are those of the source.

How the values were obtained:
[1] = substrate: Cc1ccccc1OC[C@@H]1CO1; experiment: initial hydrolysis rate by HPLC, non-linear regression; type: biochemical, Phaseolus vulgaris; details: pH 7.0 phosphate 100 mM, 20 °C, 5% methanol, 1.5-15 mM substrate
Source text: (§1) initial hydrolysis rate by HPLC, non-linear regression on PvEH3

[2] = substrate: Cc1ccccc1OC[C@H]1CO1; experiment: as above; type: biochemical, Phaseolus vulgaris; details: pH 7.0 phosphate 100 mM, 20 °C, 5% methanol, 1.5-15 mM substrate
Source text: as §1

B1: PvEH3 (Phaseolus vulgaris) (protein)
chain: MEGIQHKEVEVNGIKMHVAEKGEGPVVLFLHGFPELWYSWRHQILALSSRGYRAVAPDLRGYGDTEAPASMSSYSCFDIVGDLVALIDLLGVDQVFLVAHDWGAIIGWYLCMFRPDRVKAYVCLSVPLLHRNPEIRTVDAMRAMYGDDYYICRFQKPGEMEAQMAEVGTGYVLKNILTTRKPGPPIFPKGEYGTGFNPDMTNSLPSWLSQHDLAYYVSKFQKTGFTGPLNYYRNMNPNWELTAPWSGAKIKVPVKFITGDLDMVYTSLNMKEYIHGGGFKEDVPNLEEVIVQKGVAHFNNQEAAEEINTHIYDFINKF
notes: pET-28a(+), N-terminal 6xHis tag, E. coli BL21(DE3), Ni-NTA purified; catalytic Asp101, Tyr150, Tyr232
Km [1]: 6.14 ± 0.22 mM
Km [2]: 9.84 ± 0.28 mM
kcat [2]: 1.12 ± 0.05 s⁻¹

B2: PvEH3 (Phaseolus vulgaris; E134K/T137P) (protein)
chain: B1 chain with E134K, T137P
notes: as for B1
Km [1]: 3.29 ± 0.15 mM
Km [2]: 5.40 ± 0.21 mM
kcat [2]: 1.37 ± 0.06 s⁻¹
